Results from the supplement of paper PMC9170038.

Test system: MS2 coat protein
Assay: apparent KD of MS2 coat protein; higher = weaker reporter binding
Details: Eterna round: R107
Description: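 RNA-MaP round R107: designed RNA switches with theophylline, tryptophan, arginine or FMN aptamers are transcribed on-chip within common flanks. They are titrated with SNAP-549-labelled MS2 coat protein in RNA-MaP buffer (100 mM Tris pH 7.5, 80 mM KCl, 4 mM MgCl2), without ligand or with the indicated ligand. Median apparent KD per design.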

[1] = input ligand: theophylline 20 uM
[2] = input ligand: theophylline 2 mM
[3] = input ligand: tryptophan 2.4 mM

AGAUUCGACACGGCCGCCACUUGUGGUGGAGGGUCUUUAGUCACACAUGAGGAUCACCCAUGUACAAGGACCGGGUGUUGAGUCU [XTryp B #23]
apparent KD of MS2 coat protein (input ligand: arginine 13.2 mM): 19.1 nM | apparent KD of MS2 coat protein (input ligand: none): 19.3 nM | apparent KD of MS2 coat protein [1]: 14.2 nM | apparent KD of MS2 coat protein [2]: 25.4 nM | apparent KD of MS2 coat protein [3]: 36.3 nM

AGAGUCUAGUCGGCCGCCACUCAUGUCCAAUGGACAUGAGGAUCACCCAUGUACCGAAGGUACAUGAGGACCGGGACUGGACUCA [Omei Tryp B SS C v6]
apparent KD of MS2 coat protein (input ligand: arginine 13.2 mM): 43.6 nM | apparent KD of MS2 coat protein [1]: 496 nM | apparent KD of MS2 coat protein [2]: 330 nM

GCACGACAUGAGGAUCACCCAUGUGCAGAUACCAGUAAUGUAUGUUACCCUUGGCAGCUGAGUAGGUCUGGAGGGCUAUAGGUUU [Same State Theophylline A GF13]
apparent KD of MS2 coat protein (input ligand: arginine 13.2 mM): 15.4 nM | apparent KD of MS2 coat protein (input ligand: none): 13.9 nM | apparent KD of MS2 coat protein [1]: 17.2 nM | apparent KD of MS2 coat protein [2]: 15.6 nM | apparent KD of MS2 coat protein [3]: 14.1 nM

UUUUUUUUGGGAAGGAGCGGGAACAUGUGGAUCUCCCAUGUACAUGAGGAUCACCCAUGUACCCAGGUAGGUCGCUCAUUUUUUU [Exclusion - Arginine B]
apparent KD of MS2 coat protein (input ligand: arginine 13.2 mM): 28.4 nM | apparent KD of MS2 coat protein (input ligand: none): 25.8 nM | apparent KD of MS2 coat protein [1]: 38.6 nM | apparent KD of MS2 coat protein [2]: 37.8 nM | apparent KD of MS2 coat protein [3]: 26 nM

GCAGUGGGUUAUAAGUAAUAGAAUUCUGAAGGAGCGUGAUGAAACACAGGUAGGUCGCAGGAACAUGAGGAUCACCCAUGUACGG [Same State Arginine A GF20]
apparent KD of MS2 coat protein (input ligand: arginine 13.2 mM): 61.4 nM | apparent KD of MS2 coat protein (input ligand: none): 58.7 nM | apparent KD of MS2 coat protein [1]: 51.6 nM | apparent KD of MS2 coat protein [2]: 37.6 nM | apparent KD of MS2 coat protein [3]: 50.3 nM

AGACAUGAGGAUCACCCAUGUAGUAUGGAUACCAGAUCCAGAUUUAUCCCUUGGCAGCUGUGGUACAGCGUUGCAACGCUCCUAG [Exclusion - Theophylline A (Freestyle 14)]
apparent KD of MS2 coat protein (input ligand: arginine 13.2 mM): 30.4 nM | apparent KD of MS2 coat protein [1]: 38.7 nM | apparent KD of MS2 coat protein [3]: 31.8 nM

CCCGACGAGCCUGAGAUUAAGUAAGCGGAUACCAGAGAUAGGUAGCUCCCUUGGCAGCCGUGGACAUGAGGAUCACCCAUGUCAC [theeternabot_exclusion_MS2_Theo_A_22]
apparent KD of MS2 coat protein (input ligand: arginine 13.2 mM): 11.4 nM | apparent KD of MS2 coat protein [1]: 13.5 nM | apparent KD of MS2 coat protein [3]: 10.9 nM

GGCACAUAGUCGGCCGCCACUAGGGUGUAGUGGAAUAACAUGAGGAUCACCCAUGUAUUUGGGACUAGGACCGGGACUAUGUGCC [Leopard]
apparent KD of MS2 coat protein (input ligand: arginine 13.2 mM): 27.2 nM | apparent KD of MS2 coat protein [1]: 40.4 nM | apparent KD of MS2 coat protein [2]: 30 nM

GCCAUCGGCGGAAGCCGAUGGGAUACAGAAGGAGCGUAGGAAACUACAGGUAGGUCGCUGGACAUGAGGAUCACCCAUGUGAUAG [SSAA #11]
apparent KD of MS2 coat protein (input ligand: arginine 13.2 mM): 19.6 nM | apparent KD of MS2 coat protein (input ligand: none): 24 nM | apparent KD of MS2 coat protein [1]: 31.9 nM | apparent KD of MS2 coat protein [2]: 31.6 nM | apparent KD of MS2 coat protein [3]: 22.7 nM

AACAUGAGGAUCACCCAUGUCCUCGUGAUUCGAGGACCGGUACGGCCGCCACUCGGUCCUCGCGAGGUGGAGUCAAAGACUCCAA [Omei Trp A SS A v3]
apparent KD of MS2 coat protein (input ligand: arginine 13.2 mM): 72.3 nM | apparent KD of MS2 coat protein (input ligand: none): 384 nM | apparent KD of MS2 coat protein [1]: 487 nM | apparent KD of MS2 coat protein [2]: 425 nM | apparent KD of MS2 coat protein [3]: 327 nM

GAGUUGUGCUCAGGCCCGACUCGCUGAGAAGGAGCGCACUAAGGUGCAGGUAGGUCGCUCAGGAAUACAUGAGGAUCACCCAUGU [Erlaatti]
apparent KD of MS2 coat protein (input ligand: arginine 13.2 mM): 21.7 nM | apparent KD of MS2 coat protein (input ligand: none): 22.9 nM | apparent KD of MS2 coat protein [1]: 29.9 nM | apparent KD of MS2 coat protein [2]: 28.5 nM | apparent KD of MS2 coat protein [3]: 25.2 nM

UCGGGCAGAGCGGCCGCCACUGUUUGGCGUGCGGAUGAAGGAACAUGAGGAUCACCCAUGUAGAUUAGGACCGGGCUUGCGGAGA [ddrmullin]
apparent KD of MS2 coat protein (input ligand: arginine 13.2 mM): 8.61 nM | apparent KD of MS2 coat protein (input ligand: none): 13.8 nM | apparent KD of MS2 coat protein [1]: 18.1 nM | apparent KD of MS2 coat protein [2]: 15 nM | apparent KD of MS2 coat protein [3]: 15.9 nM

CACAUGAGGAUCACCCAUGUCUGAACUGAAGGAGCGCUAAAUAAGGCAGGUAGGUCGCGGAAUCCUGUGUGCAUAUGCACACGGG [9.X]
apparent KD of MS2 coat protein (input ligand: arginine 13.2 mM): 20.7 nM | apparent KD of MS2 coat protein (input ligand: none): 22.6 nM | apparent KD of MS2 coat protein [1]: 30.5 nM | apparent KD of MS2 coat protein [2]: 28.9 nM | apparent KD of MS2 coat protein [3]: 19.8 nM

ACGUAAUGCAGAAGGAGCGUCUUUUUAAAACAUGAGGAUCACCCAUGUAAUAUUUAUGGGAGACAGGUAGGUCGCUGAAGUACGA [JR_SSArginiB_Sub006]
apparent KD of MS2 coat protein (input ligand: arginine 13.2 mM): 30.3 nM | apparent KD of MS2 coat protein (input ligand: none): 23.5 nM | apparent KD of MS2 coat protein [1]: 32.3 nM | apparent KD of MS2 coat protein [2]: 22.3 nM | apparent KD of MS2 coat protein [3]: 25.3 nM

AGCGUUCGGUUUAUGCCGGACAAUGGGUGACGAGGACCGGUACGGCCGCCACUCGGGCGCCCGGUUACAUGAGGAUCACCCAUGU [Oresrile]
apparent KD of MS2 coat protein (input ligand: arginine 13.2 mM): 74.3 nM | apparent KD of MS2 coat protein [1]: 190 nM | apparent KD of MS2 coat protein [2]: 200 nM

AAACGUUGCUGCGAUACCAGACAUGAGGAUCACCCAUGUACCAAGGUAACCGAAAGGCAUGUCCCUUGGCAGCGCAGCAACGAAA [MAT - Exclusion Theophlline B - Mod of Eli - D17]
apparent KD of MS2 coat protein (input ligand: arginine 13.2 mM): 14.8 nM | apparent KD of MS2 coat protein (input ligand: none): 11.1 nM | apparent KD of MS2 coat protein [1]: 18.9 nM | apparent KD of MS2 coat protein [2]: 262 nM | apparent KD of MS2 coat protein [3]: 13.5 nM

AUGUCGUUGAAUACAGCGGCAUGGAGUGAUACCAGAAUGAUCAAAUUCCCUUGGCAGCAUGACAUGAGGAUCACCCAUGUUCGAU [SSTheo A #15]
apparent KD of MS2 coat protein (input ligand: arginine 13.2 mM): 34.3 nM | apparent KD of MS2 coat protein [1]: 61.3 nM | apparent KD of MS2 coat protein [3]: 77.5 nM

AUGUUGGUCUGAAGGAGCGCGAUAACAUGAGGAUCACCCAUGUUAAAUGGUACAUGAUACUCGCAGGUAGGUCGCAGUACGACAA [Same State Arginine B GF 13]
apparent KD of MS2 coat protein (input ligand: arginine 13.2 mM): 18.6 nM | apparent KD of MS2 coat protein (input ligand: none): 20.7 nM | apparent KD of MS2 coat protein [1]: 29.7 nM | apparent KD of MS2 coat protein [2]: 32.2 nM | apparent KD of MS2 coat protein [3]: 25.1 nM

GUUUACAUGAGGAUCACCCAUGUCGCCGGCCGAGGACCGGUACGGCCGCCACUCGUCCUAAUGGCACUUGACUUCCCUAUUAAGU [theeternabot_sameState_MS2_Trp_A_33]
apparent KD of MS2 coat protein (input ligand: arginine 13.2 mM): 20.4 nM | apparent KD of MS2 coat protein [1]: 31.3 nM | apparent KD of MS2 coat protein [2]: 25.5 nM

AAACAUGAGGAUCACCCAUGUUGAGGAUCACGAGGACCGGUACGGCCGCCACUCGACAUGAGGAUCACCCAUGUGAGGAUCACCC [Same State - Tryptophan A #1]
apparent KD of MS2 coat protein (input ligand: arginine 13.2 mM): 52.5 nM | apparent KD of MS2 coat protein [1]: 214 nM | apparent KD of MS2 coat protein [2]: 337 nM

UACCGAUGAAGAAGGAGCGUAUGCUUAUAUGAUGGUAACAUGAGGAUCACCCAUGUCAGUAUACAGGUAGGUCGCUUCAUCGGUA [EAB NP+V+V2 #22]
apparent KD of MS2 coat protein (input ligand: arginine 13.2 mM): 45.3 nM | apparent KD of MS2 coat protein (input ligand: none): 59.1 nM | apparent KD of MS2 coat protein [1]: 68.6 nM | apparent KD of MS2 coat protein [2]: 73.3 nM | apparent KD of MS2 coat protein [3]: 45.8 nM

CGCAACCAACAUGAGGAUCACCCAUGUGAAGGAGCGCCGAAUAAGGCAGGUAGGUCGCACAUGAAUAAAUCAUGAAGGAAGCGAA [XArg-A 12 NuPack]
apparent KD of MS2 coat protein (input ligand: arginine 13.2 mM): 20.5 nM | apparent KD of MS2 coat protein (input ligand: none): 36.8 nM | apparent KD of MS2 coat protein [1]: 43.8 nM | apparent KD of MS2 coat protein [2]: 51.2 nM | apparent KD of MS2 coat protein [3]: 31.5 nM

UUAUUUAUAAUGGAUACCAGUUUAAUGGCCGCAAAUCCUGACAUGAGGAUCACCCAUGUAAGCCCUUGGCAGCUGUUAUGGGUUU [XTheo B #24]
apparent KD of MS2 coat protein (input ligand: arginine 13.2 mM): 34.2 nM | apparent KD of MS2 coat protein [1]: 47.3 nM | apparent KD of MS2 coat protein [3]: 35.2 nM

UGUCGCAGGUUAGAUACCAGCGAGGCGCGGGUAAAUGUUCACAUGAGGAUCACCCAUGUUCGCCCUUGGCAGCUAGUAGGCAUAA [theeternabot_exclusion_MS2_Theo_B_36]
apparent KD of MS2 coat protein (input ligand: arginine 13.2 mM): 23.9 nM | apparent KD of MS2 coat protein [1]: 34 nM | apparent KD of MS2 coat protein [3]: 27.3 nM

AAUGGUGGAACGAAGUACAGGAGUACAAAUCGAGGACCGGUACGGCCGCCACUCGCGAAAGAACAUGAGGAUCACCCAUGUAAAA [theeternabot_exclusion_MS2_Trp_A_34]
apparent KD of MS2 coat protein (input ligand: arginine 13.2 mM): 12.1 nM | apparent KD of MS2 coat protein (input ligand: none): 8.09 nM | apparent KD of MS2 coat protein [1]: 21.8 nM | apparent KD of MS2 coat protein [2]: 177 nM | apparent KD of MS2 coat protein [3]: 11.1 nM

UGAUGGUUCGGAAGGAGCGUGUAAGAACAAGAACAUGAGGAUCACCCAUGUAUUAAUUUAACACAGGUAGGUCGCCGAGUUAUUG [11.I]
apparent KD of MS2 coat protein (input ligand: arginine 13.2 mM): 12.6 nM | apparent KD of MS2 coat protein (input ligand: none): 15.9 nM | apparent KD of MS2 coat protein [1]: 22.1 nM | apparent KD of MS2 coat protein [2]: 28.9 nM | apparent KD of MS2 coat protein [3]: 17 nM

AAGUGGCACGGAAGGAGCGAGUUUGCCUAUUACAUGAGGAUCACCCAUGUGGGUAAUGGGACUCAGGUAGGUCGCCGUUGUCACU [Same State Arginine B GF 26]
apparent KD of MS2 coat protein (input ligand: arginine 13.2 mM): 29.5 nM | apparent KD of MS2 coat protein (input ligand: none): 56.8 nM | apparent KD of MS2 coat protein [1]: 48.5 nM | apparent KD of MS2 coat protein [2]: 42 nM | apparent KD of MS2 coat protein [3]: 46.3 nM

UUGGAUGAAGGAGUGAAAAGCAACUCAGAUACCAGUCUGAGUAAUGACCCUUGGCAGCUGAGAACAUGAGGAUCACCCAUGUGAC [theeternabot_exclusion_MS2_Theo_A_34]
apparent KD of MS2 coat protein (input ligand: arginine 13.2 mM): 11.7 nM | apparent KD of MS2 coat protein [1]: 15.5 nM | apparent KD of MS2 coat protein [3]: 17.1 nM

AGAUUCGACACGGCCGCCACUCUACACGGAUUUCCGAGUGUCGAACAUGAGGAUCACCCAUGUGGGAGGACCGGGUGUUGAGUCU [XTryp B #11]
apparent KD of MS2 coat protein (input ligand: arginine 13.2 mM): 164 nM | apparent KD of MS2 coat protein [1]: 704 nM | apparent KD of MS2 coat protein [2]: 944 nM
